Results as given in patent publication US7250269B2, “Composition for assaying glycoprotein” (Asahi Kasei Pharma Corporation, priority 2001, dated 2007).

Columns and labels:
Assay type in all cases: biochemical
[1] = system: G-I substrate solution (Glovenin I: immunoglobulin preparation); assay: Activity of various proteases on G-I substrate solution (R-FOD assay); conditions: pH 8.0, 37° C. for 30 minutes
Description: (§1) • 1. […] GA % was assayed using a glycated albumin analyzer (GAA-2000, manufactured by ARKRAY, Inc.). • 2. G-II and III substrate solutions, FRA value=48 μmol/L [Globulins Human Cohn Fraction II and III; 16.9 mg/ml (manufactured by Sigma-Aldrich Co.)] • 3. G-IV substrate solution, FRA value=26 μmol/L [Globulins Human Cohn Fraction IV; 6 mg/ml (manufactured by Sigma-Aldrich Co.)] • 4. G-I substrate solution, FRA value=77 μmol/L [Glovenin I: immunoglobulin preparation (manufactured by Takeda Chemical Industries, Ltd.)] • 5. Hb substrate solution: Hemoglobin Human; 55 mg/ml, glycated hemoglobin rate: HbA1c=4.5% [manufactured by Sigma-Aldrich Co., the HbA1c value was determined using a glycated hemoglobin analyzer (Hi-Auto A1C HA-8150, manufactured by ARKRAY, Inc.)].
(§2) 200 μl of a substrate solution other than Hb, 40 μl of 100 mg/ml protease solution (a solution with a concentration as close to 100 mg/ml as possible if a 100 mg/ml solution cannot be prepared, or as is if the protease solution is liquid), and 10 μl of 1 M Tris buffer solution (pH 8) were thoroughly mixed and reacted at 37° C. for 30 minutes. The reaction solution was filtered through 10,000 NMWL membrane (Ultrafree MC, manufactured by Millipore Corp.) The filtrate was served as the protease reaction sample. The same procedure was conducted using distilled water instead of the substrate to prepare a blank sample.
(§3) 300 μl of the above reaction solution for assaying glycated amino acids was added to a cell and incubated for three minutes at 37° C. […] 30 μl of the protease reaction sample was then added to the cell and incubated for five minutes at 37° C. […] The same procedure was conducted using the blank sample instead of the protease reaction sample. Absorbances (A0 blank and A1 blank) were measured. The reaction of protease with glycated proteins is indicated by the following absorbance change. ΔA=(A1−A0)−(A1 blank−A0 blank)

[2] = target: T1, Hb substrate solution: Hemoglobin Human (Homo sapiens, UniProt P68871+P69905); assay: Activity of various proteases on Hb substrate solution (R-FOD assay); conditions: pH 8.0; 37° C. for 60 minutes
T1 construct: purchased Sigma-Aldrich Co
Description: as §1
For the Hb substrate solution, 150 μl of the substrate solution, 60 μl of 200 mg/ml protease solution (a solution with a concentration as close to 200 mg/ml as possible if a 200 mg/ml solution cannot be prepared, or as is if the protease solution is liquid), and 5 μl of 1 M Tris buffer solution (pH 8) were thoroughly mixed and reacted at 37° C. for 60 minutes. The reaction solution was filtered through 10,000 NMWL membrane (Ultrafree MC, manufactured by Millipore Corp.). The filtrate was served as the protease reaction sample. The same procedure was conducted using distilled water instead of the substrate to prepare a blank sample.
as §3

[3] = target: T2, HSA substrate solution; Albumin Human (Homo sapiens, UniProt P02768); assay: Activity of various proteases on HSA substrate solution (released glycated amino acids/peptides assayed with R-FOD); conditions: pH 8.0; 37° C. for 30 minutes
T2 construct: purchased Sigma-Aldrich Co
Description: as §1, §2, §3

[4] = FOD enzyme activity / substrate specificity on glycated lysine; conditions: glycated lysine / glycated valine
Description: 164 strains of mutant colonies obtained in Example 15 were cultured for 16 hours at 30° C. in 1.5 ml of a 3.7% BHI liquid medium (manufactured by DIFCO Co.) containing 50 μg/ml of ampicillin and 1 mM of IPTG. 1 ml of the culture broth was centrifuged (15,000 G for one minute at 4° C.) to collect cells. 200 μl of 10 mM Tris-HCl buffer solution (pH 8.0) was added to the collected cells. After crushing the cells using an ultrasonic breaker, the mixture was centrifuged (14,000 G for five minutes at 4° C.) to obtain a cell extract as a supernatant.
The glycated amino acid substrate specificity of FOD-mutated recombinant contained in the cell extract prepared in Example 16 was measured using the above-mentioned FOD enzyme activity measuring method.
Synthesis of an oligonucleotide having the base sequence of 1-27 in the sequence table Sequence ID No. 7 was consigned to an outside source (BEX Co., Ltd.). The oligonucleotide was subjected to the site-directed mutagenesis using the Mutan-K kit (manufactured by Takara Shuzo Co., Ltd.) according to the manual attached to the kit. The mutant gene obtained was incorporated again into the expression plasmid pTV119N, introduced into Escherichia coli host, and cultured at 30° C. for 16 hours in a 3.7% BHI liquid medium containing 50 μg/ml of ampicillin and 1 mM of IPTG to produce mutant FOD protein.

T1 sequence (P69905 2-142 limits assumed): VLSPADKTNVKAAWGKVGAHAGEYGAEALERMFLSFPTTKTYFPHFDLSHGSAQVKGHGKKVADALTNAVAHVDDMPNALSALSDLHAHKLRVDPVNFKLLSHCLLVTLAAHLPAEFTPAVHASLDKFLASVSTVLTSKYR
T1 sequence (P68871 2-147 limits assumed): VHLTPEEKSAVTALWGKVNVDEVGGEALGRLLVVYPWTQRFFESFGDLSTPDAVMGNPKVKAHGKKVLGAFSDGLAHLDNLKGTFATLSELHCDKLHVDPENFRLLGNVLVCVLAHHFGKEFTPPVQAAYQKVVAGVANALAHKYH

Row | Molecule | ΔA Gl [1] [mAbs] | ΔA Hb [2] [mAbs] | ΔA HSA [3] [mAbs] | Reactivity ratio, glycated lysine / glycated valine [4]
1 | Proteinase K: protease, origin Tritirachium (protein, UniProt P06873 106-384, looked up) Proteinase K: AAQTNAPWGLARISSTSPGTSTYYYDESAGQGSCVYVIDTGIEASHPEFEGRAQMVKTYYYSSRDGNGHGTHCAGTVGSRTYGVAKKTQLFGVKVLDDNGSGQYSTIIAGMDFVASDKNNRNCPKGVVASLSLGGGYSSSVNSAAARLQSSGVMVAVAAGNNNADARNYSPASEPSVCTVGASDRYDRRSSFSNYGSVLDIFGPGTSILSTWIGGSTRSISGTSMATPHVAGLAAYLMTLGKTTAASACRYIADTANKGDLSNIPFGTVNLLAYNNYQA | 45 | 32 | 79 | 
2 | Carboxypeptidase Y: protease, origin Yeast (protein, UniProt P00729 112-532, looked up) Carboxypeptidase Y: KIKDPKILGIDPNVTQYTGYLDVEDEDKHFFFWTFESRNDPAKDPVILWLNGGPGCSSLTGLFFELGPSSIGPDLKPIGNPYSWNSNATVIFLDQPVNVGFSYSGSSGVSNTVAAGKDVYNFLELFFDQFPEYVNKGQDFHIAGESYAGHYIPVFASEILSHKDRNFNLTSVLIGNGLTDPLTQYNYYEPMACGEGGEPSVLPSEECSAMEDSLERCLGLIESCYDSQSVWSCVPATIYCNNAQLAPYQRTGRNVYDIRKDCEGGNLCYPTLQDIDDYLNQDYVKEAVGAEVDHYESCNFDINRNFLFAGDWMKPYHTAVTDLLNQDLPILVYAGDKDFICNWLGNKAWTDVLPWKYDEEFASQKVRNWTASITDEVAGEVKSYKHFTYLRVFNGGHMVPFDVPENALSMVNEWIHGGFSL | 14 | 4 | 2 | 
3 | Papain: protease, origin Papaya (protein, UniProt P00784 134-345, looked up) Papain: IPEYVDWRQKGAVTPVKNQGSCGSCWAFSAVVTIEGIIKIRTGNLNEYSEQELLDCDRRSYGCNGGYPWSALQLVAQYGIHYRNTYPYEGVQRYCRSREKGPYAAKTDGVRQVQPYNEGALLYSIANQPVSVVLEAAGKDFQLYRGGIFVGPCGNKVDHAVAAVGYGPNYILIKNSWGTGWGENGYIRIKRGTGNSYGVCGLYTSSFYPVKN | 5 | <1 | 15 | 
4 | Trypsin: protease, origin Cow pancreas (protein, UniProt P00760 24-246, looked up) Serine protease 1: IVGGYTCGANTVPYQVSLNSGYHFCGGSLINSQWVVSAAHCYKSGIQVRLGEDNINVVEGNEQFISASKSIVHPSYNSNTLNNDIMLIKLKSAASLNSRVASISLPTSCASAGTQCLISGWGNTKSSGTSYPDVLKCLKAPILSDSSCKSAYPGQITSNMFCAGYLEGGKDSCQGDSGGPVVCSGKLQGIVSWGSGCAQKNKPGVYTKVCNYVSWIKQTIASN | 15 | <1 | 11 | 
5 | Carboxypeptidase A: protease, origin Cow pancreas (protein, UniProt P00730 111-419, looked up) Carboxypeptidase A1: ARSTNTFNYATYHTLDEIYDFMDLLVAEHPQLVSKLQIGRSYEGRPIYVLKFSTGGSNRPAIWIDLGIHSREWITQATGVWFAKKFTEDYGQDPSFTAILDSMDIFLEIVTNPDGFAFTHSQNRLWRKTRSVTSSSLCVGVDANRNWDAGFGKAGASSSPCSETYHGKYANSEVEVKSIVDFVKDHGNFKAFLSIHSYSQLLLYPYGYTTQSIPDKTELNQVAKSAVEALKSLYGTSYKYGSIITTIYQASGGSIDWSYNQGIKYSFTFELRDTGRYGFLLPASQIIPTAQETWLGVLTIMEHTLNNLY | 50 | 13 | <1 | 
6 | Alcalase: protease, origin Bacillus (protein, UniProt P00780 106-379, looked up) Subtilisin Carlsberg: AQTVPYGIPLIKADKVQAQGFKGANVKVAVLDTGIQASHPDLNVVGGASFVAGEAYNTDGNGHGTHVAGTVAALDNTTGVLGVAPSVSLYAVKVLNSSGSGSYSGIVSGIEWATTNGMDVINMSLGGASGSTAMKQAVDNAYAKGVVVVAAAGNSGSSGNTNTIGYPAKYDSVIAVGAVDSNSNRASFSSVGAELEVMAPGAGVYSTYPTNTYATLNGTSMASPHVAGAAALILSKHPNLSASQVRNRLSSTATYLGSSFYYGKGLINVEAAAQ | 49 | 17 | 92 | 
7 | Reactive 327th amino acid Valine: mutant obtained by replacing the lysine with valine, named FOD-V; plasmid pcmFOD5; Sequence ID No. 4 (protein, sequence derived from Fusarium oxysporum IFO- 9722) ASTLTKQSQILIVGGGTWGCSTALHLARRGYTNVTVLDVNRIPSPISAGHDVNKLAGRLSTADSKGDDEDSIWKALSYAAAQGWLHDPVFQPFCHNTGSVVAGSTPKSIKQLVEDEIGDDIDQYTPLNTAEDFRKTMPEGILTGNFPGWKGFYKPTGSGWVHARKAMKAAFEESERLGVKFITGSPEGKVESLIFEDGDVRGAKTADGKEHRADRTILSAGASAEFFLDFENQIQPTAWTLGHIQMTPEETKLYKNLPPLFNINQGFFMEPDEDLHQLKMCDEHPGYCNWVEKPGSKYPQSIPFAKHQVPTEAERRMKQFLKDIMPQLADRPLVHARICWCADTQDRMFLITYHPRHPSLVIASGDCGTGYVHITSIGKFISDCMEGTLEERFAKFWRWRPEKFTEFWGKDPLDRFGADDKIMDLPKSDVEGWTNIKNDI |  |  |  | 1930
8 | Reactive 327th amino acid Lysine (wild type): wild type fructosyl amino acid oxidase (FOD) originating from Fusarium oxysporm IFO-9972, Sequence ID No. 1 (protein) ASTLTKQSQILIVGGGTWGCSTALHLARRGYTNVTVLDVNRIPSPISAGHDVNKLAGRLSTADSKGDDEDSIWKALSYAAAQGWLHDPVFQPFCHNTGSVVAGSTPKSIKQLVEDEIGDDIDQYTPLNTAEDFRKTMPEGILTGNFPGWKGFYKPTGSGWVHARKAMKAAFEESERLGVKFITGSPEGKVESLIFEDGDVRGAKTADGKEHRADRTILSAGASAEFFLDFENQIQPTAWTLGHIQMTPEETKLYKNLPPLFNINQGFFMEPDEDLHQLKMCDEHPGYCNWVEKPGSKYPQSIPFAKHQVPTEAERRMKQFLKDIMPQLADRPLVHARICWCADTQDRMFLITYHPRHPSLVIASGDCGTGYKHITSIGKFISDCMEGTLEERFAKFWRWRPEKFTEFWGKDPLDRFGADDKIMDLPKSDVEGWTNIKNDI |  |  |  | 9.5
